Source: publication PMC6215446, “High-level expression and molecular characterization of a recombinant prolidase from Escherichia coli NovaBlue” (PeerJ, 2018)

B1: Escherichia coli NovaBlue prolidase (EcPepQ), His6-tagged (enzyme, UniProt P21165 1-443, looked up)
chain: MESLASLYKNHIATLQERTRDALARFKLDALLIHSGELFNVFLDDHPYPFKVNPQFKAWVPVTQVPNCWLLVDGVNKPKLWFYLPVDYWHNVEPLPTSFWTEDVEVIALPKADGIGSLLPAARGNIGYIGPVPERALQLGIEASNINPKGVIDYLHYYRSFKTEYELACMREAQKMAVNGHRAAEEAFRSGMSEFDINIAYLTATGHRDTDVPYSNIVALNEHAAVLHYTKLDHQAPEEMRSFLLDAGAEYNGYAADLTRTWSAKSDNDYAQLVKDVNDEQLALIATMKAGVSYVDYHIQFHQRIAKLLRKHQIITDMSEEAMVENDLTGPFMPHGIGHPLGLQVHDVAGFMQDDSGTHLAAPAKYPYLRCTRILQPGMVLTIEPGIYFIESLLAPWREGQFSKHFNWQKIEALKPFGGIRIEDNVVIHENNVENMTRDLKLA
notes: Prolidase (Xaa-Pro dipeptidase) PepQ of E. coli NovaBlue; residue number of 443 printed; Cloned BamHI/HindIII into pQE-30; also called Xaa-Pro dipeptidase; recombinant enzyme; source: E. coli M15 (pQE-EcPepQ), IPTG-induced, purified (Ni-NTA); not shown: His6, N-terminal, kept

Columns and labels:
[1] = tested on: C[C@H](N)C(=O)N1CCC[C@H]1C(=O)O; assay: proline release, ninhydrin colorimetric assay; Lineweaver-Burk; type: biochemical, Escherichia coli; conditions: 0.1 mM Mn2+, 25 mM Tris-HCl pH 8.0, 60 °C, 10 min, substrate 0.2-14.2 mM
[2] = target: the molecule itself; assay: SEC; gel filtration on Superdex 200 HiLoad 16/60, 25 mM Tris-HCl buffer (pH 8.0) with 10 mM Mg(OAc)2 and 2 mM DTT; calibrated with thyroglobulin, aldolase, ovalbumin, ribonuclease A; apparent molecular mass of the native form

Molecule | Km [1] [mM] | kcat [1] [s⁻¹] | stoichiometry N [2]
EcPepQ (Escherichia coli K-12) | 8.8 ± 1.1 | 926.5 ± 2.0 | –
B1 | – | – | 2
